Reference: US20170306044A1 (ENGMAB, published 2017)
“And” between values parts separate entries of the source, which are not always exact repeats. Equal entries are not always repeated.

Assays:
[1] = target: T1, human ROR1 (tyrosine-protein kinase transmembrane receptor ROR1) (human, UniProt Q01973 30-937); test: flow cytometry on PA-1 ovarian cancer cells (MFI against antibody concentration)
T1 construct: whole, on cells; the assays used the protein on cells
Protocol: (§1) a) The level of expression of ROR1 is measured on human ovarian cancer cell lines by flow cytometry including PA-1, MCAS, EFO-21, COLO-704, SW-626, KURAMOCHI, OVSAHO, SNU-119, COV362, OVCAR-4, COV318, TYK-nu, ON/KATE, CAOV-4, OAW28, CAOV-3, 59M, ONCO-DG-1, OVCAR-3. OVCAR-5, ES-2, COV-504, OV-90, RMUG-S, COV-644, SNU-840, OVISE, OAW42, OVTOKO, OVMANA, COV-434, OV56, SK-OV-3N2780, IGROV-1, and/or TOV-21G. Briefly, cells are harvested, washed, counted for viability, resuspended at 50,000 cells/well of a 96-well round bottom plate and incubated with Alexa488-labeled anti human ROR1 antibody for 30 min at 4° C. All ROR1 and isotype control antibodies are titrated and analyzed in final concentration range between 0.01-100 nM. […] At the end of incubation time, cells are centrifuged (5 min. at 350 x g), washed twice with FACS buffer, resuspended in 100 u.l FACS buffer and analyzed on a CantoII device running FACS Diva software. Expression of ROR1 is then quantitified as the median fluorescence intensity (MFI) and graphs showing the MFI in function of ROR1 antibody concentrations are plotted. EC50 values are then measured using Prism software (GraphPad). […] The calculated EC50s for binding of ROR1 Mab1 to SK-OV-3 are extrapolated values and may be underestimated. […]

[2] = target: T1, human ROR1 (tyrosine-protein kinase …); test: flow cytometry on SK-OV-3 ovarian cancer cells (MFI against antibody concentration); extrapolated value
Protocol: as §1

[3] = target: T1, human ROR1 (tyrosine-protein kinase …); test: flow cytometry, maximum MFI at 10 µg/mL antibody, PA-1 against SK-OV-3 cells
Protocol: as §1

T1 sequence (Q01973 30-937): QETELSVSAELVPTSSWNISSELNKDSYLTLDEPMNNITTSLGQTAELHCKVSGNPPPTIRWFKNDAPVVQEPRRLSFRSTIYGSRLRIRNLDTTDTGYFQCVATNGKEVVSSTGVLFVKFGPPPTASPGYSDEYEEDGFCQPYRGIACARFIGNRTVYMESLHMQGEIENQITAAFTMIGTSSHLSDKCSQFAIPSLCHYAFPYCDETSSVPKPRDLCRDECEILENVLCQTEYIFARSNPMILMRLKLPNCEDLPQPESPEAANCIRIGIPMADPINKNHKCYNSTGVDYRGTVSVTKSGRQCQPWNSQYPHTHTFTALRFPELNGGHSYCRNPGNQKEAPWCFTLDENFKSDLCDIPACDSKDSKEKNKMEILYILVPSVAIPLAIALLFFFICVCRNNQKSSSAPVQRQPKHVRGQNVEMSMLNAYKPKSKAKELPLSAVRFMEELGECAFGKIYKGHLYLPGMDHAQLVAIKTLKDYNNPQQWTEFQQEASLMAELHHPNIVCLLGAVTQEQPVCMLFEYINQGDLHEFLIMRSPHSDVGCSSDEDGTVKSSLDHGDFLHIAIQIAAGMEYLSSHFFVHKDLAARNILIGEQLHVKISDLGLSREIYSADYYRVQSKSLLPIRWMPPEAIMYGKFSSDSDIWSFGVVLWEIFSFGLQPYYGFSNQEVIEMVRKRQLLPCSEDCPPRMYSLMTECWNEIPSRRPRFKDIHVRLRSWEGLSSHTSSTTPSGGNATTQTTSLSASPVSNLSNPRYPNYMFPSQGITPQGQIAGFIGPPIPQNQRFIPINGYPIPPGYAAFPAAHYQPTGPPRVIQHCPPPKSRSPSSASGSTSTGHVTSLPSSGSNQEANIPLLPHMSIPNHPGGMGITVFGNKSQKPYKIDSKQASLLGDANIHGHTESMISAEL

EC50 [1]: 0.87 nM and 0.13 µg/mL | EC50 [2]: ~4.62 nM and ~0.69 µg/mL | maximum MFI on PA-1 cells relative to SK-OV-3 cells [3]: ~3 fold
B1: ROR1 Mab1 IgG (anti-ROR1 antibody MAB1) (antibody, V domains shown)
VH: QEQLVESGGRLVTPGGSLTLSCKASGFDFSAYYMSWVRQAPGKGLEWIATIYPSSGKTYYATWVNGRFTISSDNAQNTVDLQMNSLTAADRATYFCARDSYADDGALFNIWGPGTLVTISS
VL: ELVLTQSPSVSAALGSPAKITCTLSSAHKTDTIDWYQQLQGEAPRYLMQVQSDGSYTKRPGVPDRFSGSSSGADRYLIIPSVQADDEADYYCGADYIGGYVFGGGTQLTVTG
notes: also called ROR1 IgG; Mab1 anti-ROR1 antibodies
